{
  "source": "paper PMC10374466",
  "key": {"[1]": {"biological_target": "T1, mouse IDO1 (Mus musculus, UniProt P28776 1-407)", "T1 sequence (P28776 whole entry)": "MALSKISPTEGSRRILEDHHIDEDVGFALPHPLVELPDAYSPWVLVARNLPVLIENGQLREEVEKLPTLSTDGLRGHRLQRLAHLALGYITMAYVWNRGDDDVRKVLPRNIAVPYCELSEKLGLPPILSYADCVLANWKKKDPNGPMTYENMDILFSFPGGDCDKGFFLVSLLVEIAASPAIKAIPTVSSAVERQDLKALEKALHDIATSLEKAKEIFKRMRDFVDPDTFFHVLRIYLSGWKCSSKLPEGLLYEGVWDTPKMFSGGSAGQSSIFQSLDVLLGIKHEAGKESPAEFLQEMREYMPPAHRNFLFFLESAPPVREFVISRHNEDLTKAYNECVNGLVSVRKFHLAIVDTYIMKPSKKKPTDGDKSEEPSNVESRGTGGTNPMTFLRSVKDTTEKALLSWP", "assay": "flow cytometry on protein-coated beads"}, "[2]": {"biological_target": "T1, mouse IDO1", "assay": "flow cytometry on protein-coated beads", "remark": "listed apart in the source"}},
  "data": [
    {"binder": "#1 (ssDNA) DNA: CAGCACCGTCAACTGAATATCAGGACGGACCTGGGGAGGTCAGTTAGCCCTCTGAACTGTGATGCGATGGAGATGT", "values": [
      {"measurement": "binding result", "setting": "[1]", "value": "binds"}
    ]},
    {"binder": "#3 (ssDNA) DNA: CAGCACCGTCAACTGAATAGGAAGATACCCGGGGGTACCGTTACCGCTGTGAACGGAGGTGATGCGATGGAGATGT", "values": [
      {"measurement": "binding result", "setting": "[1]", "value": "binds"}
    ]},
    {"binder": "IDO-APT (#4) (ssDNA) DNA: CAGCACCGTCAACTGAATGCCAACGGCATATCCGGACAGGCGGGAACCTAGGGCCTTTGTGATGCGATGGAGATGT", "values": [
      {"measurement": "Kd", "setting": "[2]", "value": "131 ± 9", "unit": "nM"}
    ]},
    {"binder": "#2 (ssDNA) DNA: CAGCACCGTCAACTGAATCCGTCACTCGCTCGGGGGTCCGACATTTACCCTGTGAAATGTGATGCGATGGAGATGT", "values": [
      {"measurement": "binding result", "setting": "[1]", "value": "binds"}
    ]}
  ]
}
